Test results reported in patent US20250171787, “APTAMERS, PHARMACEUTICAL COMPOSITIONS THEREOF, AND METHODS FOR PREVENTING OR TREATING BCMA-ASSOCIATED DISEASES OR CONDITIONS” (Aptapeutics Limited, published 2025).

B1: 10-10 (ssDNA)
DNA: ACGCTAGCTGTTGCTGTGCAGGAAGAATGCAGATTCCCAACATGGATCCGAGCTCCACGTG
B2: 10-7 (ssDNA)
DNA: CGTACGGTCGACGCTAGCTGTTGCTGTGCAGGAAGAATGCAGATTCCCAACATGGATCCGAGCTCC
B3: modified 10-3 (XNA)
DNA: CGTACGGTCGACGCTAGCTGTTGCTGTGCAGGAAGAATGCAGATTC
modifications: 2'-OMe on all cytosines; 3' inverted dT (terminal t in listing is the inverted dT)
B4: 10-6 (ssDNA)
DNA: CGTACGGTCGACGCTAGCTGTTGCTGTGCAGGAAGAATGCAGATTCCCAACATGGATCCGA
B5: Sample 1 (ssDNA)
DNA: CGTACGGTCGACGCTAGCAAGTATAGACGTGATGCAGGGAATGCAGACCCAGGGGATCCGAGCTCCACGTG
B6: 10-4 (ssDNA)
DNA: CGTACGGTCGACGCTAGCTGTTGCTGTGCAGGAAGAATGCAGATTCCCAAC
B7: 10-12 (ssDNA)
DNA: TTGCTGTGCAGGAAGAATGCAGATTCCCAACATGGATCCGAGCTCCACGTG
B8: 10-5 (ssDNA)
DNA: CGTACGGTCGACGCTAGCTGTTGCTGTGCAGGAAGAATGCAGATTCCCAACATGGA
B9: 10-11 (ssDNA)
DNA: AGCTGTTGCTGTGCAGGAAGAATGCAGATTCCCAACATGGATCCGAGCTCCACGTG
B10: Sample 10 (ssDNA)
DNA: CGTACGGTCGACGCTAGCTGTTGCTGTGCAGGAAGAATGCAGATTCCCAACATGGATCCGAGCTCCACGTG
B11: Sample 7 (ssDNA)
DNA: CGTACGGTCGACGCTAGCCCATGGGAATGCAGACCGCAGGCTGGCTGTAGGAGGGATCCGAGCTCCACGTG
B12: 10-9 (ssDNA)
DNA: GGTCGACGCTAGCTGTTGCTGTGCAGGAAGAATGCAGATTCCCAACATGGATCCGAGCTCCACGTG

Assays:
BCMA (TNFRSF17) [1] = target: T1, BCMA (TNFRSF17) (Homo sapiens, UniProt Q02223 Q02223:1-54); experiment: ELONA; conditions: tags: His-tag; label: 5'-biotin
Protocol: (§1) ELONA was used to evaluate the binding affinity of the aptamers. 500 ng of His-tagged recombinant BCMA was used to coat each well of a 96-well microtiter plate via overnight incubation at 4° C. 1 hour of BSA blocking at room temperature was used to cover non-binding sites and was followed by 4 washes with DNA binding buffer for 5 minutes. Varying concentrations of each aptamer was added into each well for 45-minute incubation with gentle shaking. The wells were then washed with wash buffer 4 times, 5 minutes each. 100 μl of streptavidin-HRP (1:10000 in PBST+0.1% BSA) was added into each well for 30-minute incubation. 4 washes with binding buffer were then performed. 50 μl of TMB was added to each well for a 20-minute incubation. 50 μl of 2M H₂SO₄ was used to stop the reaction, followed by measurement of 450 nm absorbance.
(§2) Their binding affinity was evaluated via ELONA. Binding curves were plotted, followed by calculation of the binding affinity.

BCMA (TNFRSF17) [2] = target: T1, BCMA (TNFRSF17); experiment: ELONA; best of the truncations; conditions: tags: His-tag; label: 5'-biotin
Protocol: as §1, §2

BCMA (TNFRSF17) [3] = target: T1, BCMA (TNFRSF17); experiment: ELONA; conditions: tags: His-tag
BCMA (TNFRSF17) [4] = target: T1, BCMA (TNFRSF17); experiment: ELONA; Kd determined but value only in FIG. 2; conditions: tags: His-tag; label: 5'-biotin
BCMA (TNFRSF17) [5] = target: T1, BCMA (TNFRSF17); experiment: ELONA; random region only; conditions: tags: His-tag; label: 5'-biotin
Protocol: as §1, §2

T1 sequence (Q02223 1-54, one chain of several): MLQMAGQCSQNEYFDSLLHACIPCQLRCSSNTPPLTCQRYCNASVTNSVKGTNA

Binder	Kd (BCMA (TNFRSF17) [1]) [nM]	other results
CGTACGGTCGACGCTAGCTGTTGCTGTGCAGGAAG (ssDNA) [10-1]	1290	–
B1	1550	–
B2	65	–
CGTACGGTCGACGCTAGCTGTTGCTGTGCAGGAAGAATGCAGATTC (ssDNA) [10-3]	–	Kd (BCMA (TNFRSF17) [2]): 59 nM
B3	–	Kd (BCMA (TNFRSF17) [3]): ~64.2 nM
B4	364	–
B5	–	binding result (BCMA (TNFRSF17) [4]): binds
B6	130	–
CGTACGGTCGACGCTAGCTGTTGCTGTGCAGGAAGAATGCA (ssDNA) [10-2]	240	–
B7	542	–
B8	579	–
B9	1590	–
B10	–	binding result (BCMA (TNFRSF17) [4]): binds
TGTTGCTGTGCAGGAAGAATGCAGATTCCCAACAT (ssDNA) [10-8]	–	Kd (BCMA (TNFRSF17) [5]): 184 nM
B11	–	binding result (BCMA (TNFRSF17) [4]): binds
B12	451	–
